# Numbering of substitutions follows the chain as printed. Names may count otherwise.
# B1: Ab0319: IgG4 PE; 16H7 VL (D49Y, D50E, D91T, N93E); 16H7 VH (M34V, I83T, D109E) (antibody)
# VH: QVTLKESGPVLVKPTETLTLTCTVSGFSLNNARVGVSWIRQPPGKALEWLAHIFSNDEKSYSTSLKSRLTISKDTSKSQVVLTMTNMDPVDTATYYCARSVVTGGYYYEGMDVWGQGTTVTVSS
# light: SYVLTQPPSVSVAPGQTARITCGGNNIGSESVHWYQQKPGQAPVLVVYYESDRPSGIPERFSGSNSGNTATLTISRVEAGDEADYYCQVWTGESDHVVFGGGTKLTVLGQPKANPTVTLFPPSSEELQANKATLVCLISDFYPGAVTVAWKADGSPVKAGVETTKPSKQSNNKYAASSYLSLTPEQWKSHRSYSCQVTHEGSTVEKTVAPTECS
# B2: Ab0320: IgG4 PE; 16H7 VL (N25S, D49Y, D50E, D91T, N93E); 16H7 VH (M34V, I83T, D109E) (antibody)
# VH: B1 VH
# light: B1 light with N25S
# B3: Ab0391: IgG4 PE; 16H7 VL (Y48del, D95S, W90F, S94C, H96C); 16H7 VH (M34V, H52S, F54W, I83T, D109E) (antibody)
# VH: B1 VH with H52S, F54W
# light: SYVLTQPPSVSVAPGQTARITCGGNNIGSESVHWYQQKPGQAPVLVVDDSDRPSGIPERFSGSNSGNTATLTISRVEAGDEADYYCQVFDGNCSCVVFGGGTKLTVLGQPKANPTVTLFPPSSEELQANKATLVCLISDFYPGAVTVAWKADGSPVKAGVETTKPSKQSNNKYAASSYLSLTPEQWKSHRSYSCQVTHEGSTVEKTVAPTECS
# B4: Ab0377: IgG4 PE; 16H7 VL (Y48del, D95V, W90F); 16H7 VH (M34V, F54W, I83T, D109E) (antibody)
# VH: B1 VH with F54W
# light: B3 light with C93S, S94V, C95H
# B5: Ab0393: IgG4 PE; 16H7 VL (Y48del, D95S, W90F, S94C, H96C); 16H7 VH (M34V, H52W, I83T, D109E) (antibody)
# VH: B1 VH with H52W
# light: B3 light
# B6: Ab0371: IgG4 PE; 16H7 VL (Y48del, D95E, W90H); 16H7 VH (M34V, H52W, I83T, D109E) (antibody)
# VH: B1 VH with H52W
# light: B3 light with F89H, C93S, S94E, C95H
# B7: Ab0374: IgG4 PE; 16H7 VL (Y48del, D95E, W90F); 16H7 VH (M34V, F54W, I83T, D109E) (antibody)
# VH: B1 VH with F54W
# light: B3 light with C93S, S94E, C95H
# B8: Ab0395: IgG4 PE; 16H7 VL (Y48del, D95A, W90F); 16H7 VH (M34V, F54W, I83T, D109E) (antibody)
# VH: B1 VH with F54W
# light: B3 light with C93S, S94A, C95H
# B9: Ab0389: IgG4 PE; 16H7 VL (Y48del, D95S, W90F, S1C, S94C); 16H7 VH (M34V, H52S, F54W, I83T, D109E) (antibody)
# VH: B1 VH with H52S, F54W
# light: B3 light with S1C, C95H
# B10: Ab0379: IgG4 PE; 16H7 VL (Y48del, D95V, W90F, S1C, S94C); 16H7 VH (M34V, F54W, I83T, D109E) (antibody)
# VH: B1 VH with F54W
# light: B3 light with S1C, S94V, C95H
# B11: Ab0382: IgG4 PE; 16H7 VL (Y48del, D95V, W90F, S94C, H96C); 16H7 VH (M34V, H52S, F54W, I83T, D109E) (antibody)
# VH: B1 VH with H52S, F54W
# light: B3 light with S94V
# B12: Ab0381: IgG4 PE; 16H7 VL (Y48del, D95V, W90F, S94C, H96C); 16H7 VH (M34V, F54W, I83T, D109E) (antibody)
# VH: B1 VH with F54W
# light: B3 light with S94V
# B13: Ab0376: IgG4 PE; 16H7 VL (Y48del, D95E, W90F, S94C, H96C); 16H7 VH (M34V, F54W, I83T, D109E) (antibody)
# VH: B1 VH with F54W
# light: B3 light with S94E
# B14: Ab0383: IgG4 PE; 16H7 VL (Y48del, D95V, W90F); 16H7 VH (M34V, H52W, I83T, D109E) (antibody)
# VH: B1 VH with H52W
# light: B3 light with C93S, S94V, C95H
# B15: Ab0390: IgG4 PE; 16H7 VL (Y48del, D95S, W90F, S94C, H96C); 16H7 VH (M34V, F54W, I83T, D109E) (antibody)
# VH: B1 VH with F54W
# light: B3 light
# B16: Ab0380: IgG4 PE; 16H7 VL (Y48del, D95V, W90F, S1C, S94C); 16H7 VH (M34V, H52S, F54W, I83T, D109E) (antibody)
# VH: B1 VH with H52S, F54W
# light: B3 light with S1C, S94V, C95H
# B17: Ab0372: IgG4 PE; 16H7 VL (Y48del, D95E, W90H, S1C, S94C); 16H7 VH (M34V, H52W, I83T, D109E) (antibody)
# VH: B1 VH with H52W
# light: B3 light with S1C, F89H, S94E, C95H
# B18: Ab0373: IgG4 PE; 16H7 VL (Y48del, D95E, W90H, S94C, H96C); 16H7 VH (M34V, H52W, I83T, D109E) (antibody)
# VH: B1 VH with H52W
# light: B3 light with F89H, S94E
# B19: Ab0394: IgG4 PE; 16H7 VL (Y48del, D95S, W90F, S1C, S94C); 16H7 VH (M34V, H52W, I83T, D109E) (antibody)
# VH: B1 VH with H52W
# light: B3 light with S1C, C95H
# B20: Ab0378: IgG4 PE; 16H7 VL (Y48del, D95V, W90F); 16H7 VH (M34V, H52S, F54W, I83T, D109E) (antibody)
# VH: B1 VH with H52S, F54W
# light: B3 light with C93S, S94V, C95H
# B21: Ab0392: IgG4 PE; 16H7 VL (Y48del, D95S, W90F); 16H7 VH (M34V, H52W, I83T, D109E) (antibody)
# VH: B1 VH with H52W
# light: B3 light with C93S, C95H
# Biological target: T1, human beta-Klotho (Homo sapiens, UniProt Q86Z14)
# T1 sequence (Q86Z14 1-1044): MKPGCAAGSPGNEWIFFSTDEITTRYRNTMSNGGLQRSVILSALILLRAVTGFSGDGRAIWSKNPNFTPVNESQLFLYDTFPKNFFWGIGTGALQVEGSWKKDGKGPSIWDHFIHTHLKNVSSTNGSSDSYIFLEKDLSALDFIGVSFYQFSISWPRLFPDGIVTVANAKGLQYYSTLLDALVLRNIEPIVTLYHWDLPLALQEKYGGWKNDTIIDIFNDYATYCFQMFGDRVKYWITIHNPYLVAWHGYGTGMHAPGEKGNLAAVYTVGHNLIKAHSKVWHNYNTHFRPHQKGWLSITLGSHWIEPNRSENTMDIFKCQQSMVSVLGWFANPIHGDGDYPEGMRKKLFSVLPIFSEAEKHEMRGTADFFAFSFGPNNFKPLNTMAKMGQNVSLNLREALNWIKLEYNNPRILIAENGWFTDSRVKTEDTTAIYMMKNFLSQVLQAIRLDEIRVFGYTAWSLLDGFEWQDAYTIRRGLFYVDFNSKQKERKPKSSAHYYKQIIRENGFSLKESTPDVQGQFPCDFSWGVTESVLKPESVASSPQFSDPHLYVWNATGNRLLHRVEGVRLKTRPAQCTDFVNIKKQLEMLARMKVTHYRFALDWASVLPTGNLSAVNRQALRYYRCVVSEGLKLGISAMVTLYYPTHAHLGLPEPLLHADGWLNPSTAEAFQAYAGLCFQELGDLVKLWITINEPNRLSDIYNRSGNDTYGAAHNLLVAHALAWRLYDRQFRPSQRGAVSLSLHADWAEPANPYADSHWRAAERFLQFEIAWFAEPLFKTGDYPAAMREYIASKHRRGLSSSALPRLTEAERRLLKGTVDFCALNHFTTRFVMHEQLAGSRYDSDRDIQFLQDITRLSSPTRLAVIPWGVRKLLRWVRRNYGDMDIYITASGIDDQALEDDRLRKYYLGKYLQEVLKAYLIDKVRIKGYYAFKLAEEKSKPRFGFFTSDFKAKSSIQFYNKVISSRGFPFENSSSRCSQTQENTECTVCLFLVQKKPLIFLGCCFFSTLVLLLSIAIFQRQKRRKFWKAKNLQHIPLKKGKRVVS
# Assay: SPR off-rate screening of antibody mutants (human beta-Klotho captured by anti-His antibody)
# Type: binding
# Details: mean, n=3
# Experimental: Screening of antibody mutants for binding to human beta-Klotho was determined in a different SPR assay set up. Human beta-Klotho was affinity captured by an anti-His antibody (from His capture kit, GE Healthcare) that was immobilized to a series S CM5 chip (GE Healthcare) by amine reactive coupling as described above. The antibody samples were used as analytes at 50 nmol/L concentration. Association time was 240 sec and dissociation time was 300 sec. Chip surfaces were regenerated using the regeneration solution supplied with the His capture kit. The off-rates (kd) were determined using single exponential fitting in the Biacore 8K Evaluation Software version 1.1.1.7442 (GE Healthcare).
row,Molecule,koff human KLB
1,B1,invalid fit
2,B2,invalid fit
3,B3,no binding
4,B4,no binding
5,B5,no binding
6,B6,no binding
7,B7,no binding
8,B8,no binding
9,B9,no binding
10,B10,no binding
11,B11,no binding
12,B12,no binding
13,B13,no binding
14,B14,no binding
15,B15,no binding
16,B16,no binding
17,B17,no binding
18,B18,no binding
19,B19,no binding
20,B20,no binding
21,B21,no binding
